In the Immune Epitope Database (IEDB):

Columns and labels:
Assay in all cases: IEDB peptide-MHC binding, purified MHC/direct/fluorescence; filed as Kd, often an IC50 or EC50 that approximates it; ≥ and ≤ were set here for values at or beyond the usual limits of such assays
Settings in all cases: source organism: Cryptosporidium parvum Iowa II
HLA-A*02:03 = target: HLA-A*02:03
HLA-B*27:03 = target: HLA-B*27:03
HLA-A*02:16 = target: HLA-A*02:16
HLA-B*18:01 = target: HLA-B*18:01
HLA-A*02:19 = target: HLA-A*02:19
HLA-A*03:01 = target: HLA-A*03:01
HLA-A*68:02 = target: HLA-A*68:02

Measured: Kd

TVFRNQNRV
≤ 1 nM: HLA-A*68:02
≥ 20 µM: all other assays above
